Reference: the RNAGym collection of RNA variant scans (doi:10.1021/acssynbio.7b00057)

B1: Pistol ribozyme (parent)
chain: GGGUCGUUGUUCCAUAAUCGCGUGGAUAUGGCACGCAAGUUUCUACCGGGCACCGUAAAUGUCCGACUGGAGCCGUUCGGGCGGCUAUAAACAGACCUCAGGCCCGAAGCGUGGCGGCACCUGCCGCCGGUGGUAAAAAAGAUCGGAAGAGCACACGUCU

Variants of: B1
Assay: aptazyme ON/OFF ratio, guanine; higher = stronger switching; co-transcriptional cleavage with and without guanine

Row | Variant | aptazyme ON/OFF ratio
1 | GGGUCGCGAUAGCAUAAUCGCGUGGAUAUGGCACGCAAGUUUCUACCGGGCACCGUAAAUGUCCGACUGGAGCCGUUCGGGCGGCUAUAAACAGACCUCAGGCCCGAAGCGUGGCGGCACCUGCCGCCGGUGGUAAAAAAGAUCGGAAGAGCACACGUCU | 1.11
2 | GGGUCGCGGCUAUAUAAUCGCGUGGAUAUGGCACGCAAGUUUCUACCGGGCACCGUAAAUGUCCGACUGGAGCCGUUCGGGCGGCUAUAAACAGACCUCAGGCCCGAAGCGUGGCGGCACCUGCCGCCGGUGGUAAAAAAGAUCGGAAGAGCACACGUCU | 1.67
3 | GGGUCGCAUACCAAUAAUCGCGUGGAUAUGGCACGCAAGUUUCUACCGGGCACCGUAAAUGUCCGACUGGAGCCGUUCGGGCGGCUAUAAACAGACCUCAGGCCCGAAGCGUGGCGGCACCUGCCGCCGGUGGUAAAAAAGAUCGGAAGAGCACACGUCU | 1.07
4 | GGGUCGUCCUCGGAUAAUCGCGUGGAUAUGGCACGCAAGUUUCUACCGGGCACCGUAAAUGUCCGACUGGAGCCGUUCGGGCGGCUAUAAACAGACCUCAGGCCCGAAGCGUGGCGGCACCUGCCGCCGGUGGUAAAAAAGAUCGGAAGAGCACACGUCU | 1.26
5 | GGGUCGAGCUCGUAUAAUCGCGUGGAUAUGGCACGCAAGUUUCUACCGGGCACCGUAAAUGUCCGACUGGAGCCGUUCGGGCGGCUAUAAACAGACCUCAGGCCCGAAGCGUGGCGGCACCUGCCGCCGGUGGUAAAAAAGAUCGGAAGAGCACACGUCU | 1.37
6 | GGGUCGUAUUAGAAUAAUCGCGUGGAUAUGGCACGCAAGUUUCUACCGGGCACCGUAAAUGUCCGACUGGAGCCGUUCGGGCGGCUAUAAACAGACCUCAGGCCCGAAGCGUGGCGGCACCUGCCGCCGGUGGUAAAAAAGAUCGGAAGAGCACACGUCU | 1.32
7 | GGGUCGGGCUCACAUAAUCGCGUGGAUAUGGCACGCAAGUUUCUACCGGGCACCGUAAAUGUCCGACUGGAGCCGUUCGGGCGGCUAUAAACAGACCUCAGGCCCGAAGCGUGGCGGCACCUGCCGCCGGUGGUAAAAAAGAUCGGAAGAGCACACGUCU | 5.2
8 | GGGUCGAUGACUUAUAAUCGCGUGGAUAUGGCACGCAAGUUUCUACCGGGCACCGUAAAUGUCCGACUGGAGCCGUUCGGGCGGCUAUAAACAGACCUCAGGCCCGAAGCGUGGCGGCACCUGCCGCCGGUGGUAAAAAAGAUCGGAAGAGCACACGUCU | 1.04
9 | GGGUCGAUCGAUAAUAAUCGCGUGGAUAUGGCACGCAAGUUUCUACCGGGCACCGUAAAUGUCCGACUGGAGCCGUUCGGGCGGCUAUAAACAGACCUCAGGCCCGAAGCGUGGCGGCACCUGCCGCCGGUGGUAAAAAAGAUCGGAAGAGCACACGUCU | 1.06
10 | GGGUCGGUUACGUAUAAUCGCGUGGAUAUGGCACGCAAGUUUCUACCGGGCACCGUAAAUGUCCGACUGGAGCCGUUCGGGCGGCUAUAAACAGACCUCAGGCCCGAAGCGUGGCGGCACCUGCCGCCGGUGGUAAAAAAGAUCGGAAGAGCACACGUCU | 1.27
11 | GGGUCGUACAACCAUAAUCGCGUGGAUAUGGCACGCAAGUUUCUACCGGGCACCGUAAAUGUCCGACUGGAGCCGUUCGGGCGGCUAUAAACAGACCUCAGGCCCGAAGCGUGGCGGCACCUGCCGCCGGUGGUAAAAAAGAUCGGAAGAGCACACGUCU | 1.37
12 | GGGUCGCGGCGCAAUAAUCGCGUGGAUAUGGCACGCAAGUUUCUACCGGGCACCGUAAAUGUCCGACUGGAGCCGUUCGGGCGGCUAUAAACAGACCUCAGGCCCGAAGCGUGGCGGCACCUGCCGCCGGUGGUAAAAAAGAUCGGAAGAGCACACGUCU | 1.39
13 | GGGUCGGUUCCUGAUAAUCGCGUGGAUAUGGCACGCAAGUUUCUACCGGGCACCGUAAAUGUCCGACUGGAGCCGUUCGGGCGGCUAUAAACAGACCUCAGGCCCGAAGCGUGGCGGCACCUGCCGCCGGUGGUAAAAAAGAUCGGAAGAGCACACGUCU | 1.23
14 | GGGUCGCUCGCUUAUAAUCGCGUGGAUAUGGCACGCAAGUUUCUACCGGGCACCGUAAAUGUCCGACUGGAGCCGUUCGGGCGGCUAUAAACAGACCUCAGGCCCGAAGCGUGGCGGCACCUGCCGCCGGUGGUAAAAAAGAUCGGAAGAGCACACGUCU | 1.16
15 | GGGUCGAUACACGAUAAUCGCGUGGAUAUGGCACGCAAGUUUCUACCGGGCACCGUAAAUGUCCGACUGGAGCCGUUCGGGCGGCUAUAAACAGACCUCAGGCCCGAAGCGUGGCGGCACCUGCCGCCGGUGGUAAAAAAGAUCGGAAGAGCACACGUCU | 1.12
16 | GGGUCGGAGCGUUAUAAUCGCGUGGAUAUGGCACGCAAGUUUCUACCGGGCACCGUAAAUGUCCGACUGGAGCCGUUCGGGCGGCUAUAAACAGACCUCAGGCCCGAAGCGUGGCGGCACCUGCCGCCGGUGGUAAAAAAGAUCGGAAGAGCACACGUCU | 1.42
17 | GGGUCGGGGUGGAAUAAUCGCGUGGAUAUGGCACGCAAGUUUCUACCGGGCACCGUAAAUGUCCGACUGGAGCCGUUCGGGCGGCUAUAAACAGACCUCAGGCCCGAAGCGUGGCGGCACCUGCCGCCGGUGGUAAAAAAGAUCGGAAGAGCACACGUCU | 1.18
18 | GGGUCGAGUGUAUAUAAUCGCGUGGAUAUGGCACGCAAGUUUCUACCGGGCACCGUAAAUGUCCGACUGGAGCCGUUCGGGCGGCUAUAAACAGACCUCAGGCCCGAAGCGUGGCGGCACCUGCCGCCGGUGGUAAAAAAGAUCGGAAGAGCACACGUCU | 1.15
